One molecule from US12091776B2, “Protease activity profiling via programmable phage display of comprehensive proteome-scale peptide libraries” (THE JOHNS HOPKINS UNIVERSITY, priority 2019, dated 2024) can be followed below.

The target of this experiment is T1, Thrombin (Homo sapiens, UniProt P00734).
T1 construct: Thrombin (a serine protease); purchased SignalChem
Briefly: SEPARATE assay: human peptidome library digest with Thrombin. Format: biochemical. The settings on record: top 20 enriched peptides, human library (90-aa tiles); digest vs mock digest.

Experimental: Streptavidin-coupled magnetic beads (Dynabeads M-280 Streptavidin, ThermoFisher Scientific) were washed (TBS, pH 7.4, 0.01% NP40) and resuspended in binding buffer (TBS, pH 7.4, 0.001% NP40) containing 2E9 plaque forming units per 10 μl of bead slurry. End-over-end mixing at room temperature was performed for one hour. Phage-coated beads were washed three times with wash buffer and transferred into two protein LoBind Eppendorf tubes blocked with TBS, pH 7.4 containing 1% BSA.
Digestion occurred overnight at room temperature with end-over-end rotation. […]
The PCR2 amplicons are pooled and sequenced using an Illumina NextSeq instrument in standard output mode to obtain single-end 50 nucleotide reads. Dual indexed sample demultiplexing and clonal read count determination were performed using exact sequence matching. […] To calculate the normalization factor, 100 peptides were randomly selected from the mock digest conditions with a read count ranging between 10 and 40. The median read count value for these 100 peptides is calculated for each sample. The random peptide selection and median calculation is performed 20 times and the average of the 20 median values is calculated for each sample. Finally, the normalization factor is calculated by dividing the average median value for each sample by that for one of the mock digest conditions. […]

B1: APLPRSNRSRCPGTRQPGAASLHAASAAVPVRPRRGTAPAGKTADAVPAAAPEQAPRPAPQSRKPRNLEGDLDERRLLCHLQLAQDREAR (protein, listed as Homo sapiens)
chain: APLPRSNRSRCPGTRQPGAASLHAASAAVPVRPRRGTAPAGKTADAVPAAAPEQAPRPAPQSRKPRNLEGDLDERRLLCHLQLAQDREAR
Turning to B1, the “Thrombi Fold Change” value was 10.98 fold.
